{
  "source": "paper PMC10516418",
  "biological_target": "HMPV F v3B_Δ12 (human metapneumovirus)",
  "assay": "BLI; Octet Red384; […] (500.0 nM to 7.8 nM), 300 s association and 300 s dissociation; 30°C, […]; global 1:1 fit",
  "data": [
    {"substance": "MPE8 antigen-binding fragment (Fab)", "values": [
      {"measurement": "Kd", "result": 21, "unit": "nM"}
    ]}
  ]
}
